According to patent US20220072101A1, “HARNESSING INFLAMMATION TO TREAT NEURODEVELOPMENTAL DISORDERS” (President and Fellows of Harvard College, priority 2019, published 2022):
“Also recorded” adds a separate entry of the source. Where a name gives a salt, the structure may show the parent alone.

Columns and labels:
Assay type in all cases: in vivo, mouse
MIA offspring = experiment: Three-chamber social approach assay in PBS and MIA offspring; details: for sociability phenotype after IL-17a into S1DZ: MIA offspring, IL-17a 50 ng/side bilaterally into S1DZ, 4 hours, no LPS
Description: Adult male mice were assayed for sociability using a three-chamber social approach assay. The arena was constructed of white acrylic (50 cm×35 cm×30 cm). Wire cups (Spectrum Diversified®) were placed in the back left and right corner of the arena beneath water-filled 1 L bottles (Nalgene®). On Day 0, mice were habituated to the arena for 10 min. Immediately following habituation, mice were singly housed. On Day 1 (Pre), mice were placed in the center of the arena and allowed to freely explore. Following 10 min, mice were confined to the center of the arena. An inanimate object (rubber stopper) or a male conspecific were placed beneath the wire cups. Placement of the inanimate object and social target were alternated. Mice were then allowed to freely explore the arena for 10 min. Interaction time was defined as time spent in the areas circumscribing the wire cups (<2 cm). Sociability was defined as interaction time with the social target divided by total interaction time and expressed as a percentage. For experiments involving LPS injections, mice were injected with LPS ([…], i.p., L2630, Sigma) on Day 2 (Test), four hours prior to testing. […]
Adult male mice were implanted with cannula into S1DZ and allowed to recover for >2 weeks prior to behavioral experiments. On Day 1 (Pre) mice were assayed for sociability. On Day 2 (Test), mice were anesthetized briefly using isoflurane and either vehicle or IL-17a (50 ng/side in 1 μl at a rate of 180 nl/min, 7956-ML/CF, R&D®) was administered bilaterally into S1DZ through 250 μm-projecting injector tips (PlasticsOne®). Four hours after vehicle or IL-17a administration, mice were assayed for sociability. Cannula placements were verified using histology.
(§1) Adult male mice were assayed for sociability using a three-chamber social approach assay. The arena was constructed of white acrylic (50 cm×35 cm×30 cm). Wire cups (Spectrum Diversified®) were placed in the back left and right corner of the arena beneath water-filled 1 L bottles (Nalgene®). On day 0, mice were habituated to the arena for 10 min. Immediately following habituation, mice were singly housed. On day 1 (Pre), mice were placed in the center of the arena and allowed to freely explore. Following 10 min, mice were confined to the center of the arena. An inanimate object (rubber stopper) or a male conspecific were placed beneath the wire cups. Placement of the inanimate object and social target were alternated. Mice were then allowed to freely explore the arena for 10 min. Interaction time was defined as time spent in the areas circumscribing the wire cups (<2 cm). Sociability was defined as interaction time with the social target divided by total interaction time and expressed as a percentage. For experiments involving LPS injections, mice were injected with either saline (Veh) or LPS ([…], i.p., L2630, Sigma) on day 2 (Test), four hours prior to testing. For the experiment assaying sociability 72 hrs following LPS injection, mice used for 4 hr LPS sociability experiments were tested for sociability again at 72 hrs.
Adult male Vgat-Cre MIA offspring were bilaterally injected with virus encoding the inhibitory DREADD receptor fused to mCherry into the vLPO. Following >3 weeks of recovery, mice were assayed on the three-chamber social approach assay outlined above. Baseline sociability was assayed on day 1 (Pre). On day 2 and day 3, mice were injected with either Saline (Veh) or CNO (1.5 mg/kg i.p., BML-NS105, Enzo Life Sciences®), two hours prior to initiation of behavior. Injection order was counterbalanced. Following behavioral experiments, post-mortem histology was used to confirm mCherry expression within the vLPO. For experiments assaying the effect of CNO and LPS injection in Vgat-Cre PBS and MIA offspring that have not undergone surgery, baseline sociability was assessed on day 1. On day 2 and 3 mice received counterbalanced injections of CNO or vehicle. On day 4, mice were injected with LPS. […]

IL-17a, IFNγ, IL-6, TNFα = experiment: ELISA of cytokines in plasma and brain lysate; details: LPS-injected MIA offspring; antibiotic by oral gavage
Description: Mice were put under general anesthesia by intraperitoneal injection of Ketamine (100 mg/kg, i.p.) and xylazine (10 mg/kg, i.p.). Blood was collected by retro-orbital puncture, using clean heparinized microhematocrit capillary tubes (Fisher Scientific®). Once the tube was withdrawn, slight pressure was applied on the eyelid with gauze to prevent further bleeding. All blood samples were centrifuged at 15,000 g for 3 min at room temperature. For quantification of cytokines in brain lysate, samples were disrupted in cold lysis buffer with protease inhibitor cocktail for 60 seconds using the Micro-Homogenizer (VWR International) and centrifuged for 30 min at 15,000×g to remove insoluble precipitates. All samples were stored at −80° C. until further analysis. Plasma and brain lysate cytokines concentrations were measured using an ELISA kit (Biolgened™), following the manufacturer's instructions.
After four hours of vehicle or LPS administration, mice were anesthetized by intraperitoneal injection of fatal plus (100 mg/kg). All blood samples were centrifuged at 10,000 g for 10 min at 4 C. All samples were stored at −80° C. until further analysis. Cytokines concentrations in plasma were measured using an ELISA kit (IFN-γ; 430804, TNF-α; 430904, IL-6; 431304, IL-17a; 432504, Biolegend®), following the manufacturer's instructions.

[1] = system: segmented filamentous bacteria (SFB); experiment: SFB levels by 16S rRNA qPCR of fecal pellets and SEM of ileum after antibiotics; details: Taconic-derived mice; vancomycin 2.5 mg/kg or metronidazole 10 mg/kg orally every two days
Description: For SFB-gavaging experiments, four fecal pellets of SFB mono-colonized mice were dissolved in 20 ml sterile PBS and filtered through a 100-μm cell strainer. 200 μl of fecal suspensions were gavaged via oral route into 8 to 9-week-old male cross-fostered mice. Control mice were gavaged with PBS. The SFB colonization was tested on day 7 following SFB-gavaging. For antibiotics treatments, Taconic-derived male mice were orally gavaged with vancomycin hydrochloride (Fisher) (2.5 mg/kg) or metronidazole (10 mg/kg) (Sigma Aldrich®) every two days, starting 21 days before behavioral test. Mouse fecal pellets were collected and stored at −80° C. before and after vancomycin and metronidazole treatments.
Bacterial genomic DNA was isolated from the fecal pellets of mice with phenol-chloroform extraction. qPCR was performed to quantify relative abundance of segmented filamentous bacteria (SFB). […] Data were analysed using Roche (Lightcylcler^R 96 SW1.1) Software and the relative quantification (fold) of SFB DNA was performed using the ΔΔCt method.
Terminal ileum tissues from mice (8-10 weeks old) were cut open and fixed with 2.5% glutaraldehyde in 0.1 M cacodylate buffer (pH 7.4) overnight and processed for standard scanning electron microscopy. All samples were analysed on a Hitachi S-4800 Type II Field Emission Scanning Electron Microscope™.

[2] = system: Cntnap2, Fmr1, and Shank3 mutant mice; experiment: Three-chamber social approach assay in monogenic mutant mice; details: Cntnap2 and Fmr1 (monogenic) mutant mice, IL-17a 50 ng/side bilaterally into S1DZ, 4 hours
Description: All experiments were performed according to Guide for the Care and Use of Laboratory Animals and were approved by the National Institutes of Health and the Committee on Animal Care at Massachusetts Institute of Technology. C57BL/6 were purchased from Taconic Biosciences for generating PBS and MIA offspring. Vgat-Cre (028862) were purchased from Jackson Laboratories and inbred. For monogenic experiments, C57BL/6, Cntnap2 (017482), Fmr1 (003025), and Shank3 (017688) mice were purchased from Jackson Laboratories and inbred after colonizing with SFB from donor mice. IL-17Ra^fl/fl and IL-17RaKO were previously described^24,25. All mice were males aged 2-5 months, unless otherwise specified.
as §1, with “hrs. […]” for “hrs.”

In the case of CN[C@H](CC(C)C)C(=O)N[C@H]1C(=O)N[C@@H](CC(N)=O)C(=O)N[C@H]2C(=O)N[C@H]3C(=O)N[C@H](C(=O)N[C@H](C(=O)O)c4cc(O)cc(O)c4-c4cc3ccc4O)[C@H](O)c3ccc(c(Cl)c3)Oc3cc2cc(c3O[C@@H]2O[C@H](CO)[C@@H](O)[C@H](O)[C@H]2O[C@H]2C[C@](C)(N)[C@H](O)[C@H](C)O2)Oc2ccc(cc2Cl)[C@H]1O [vancomycin, vancomycin hydrochloride], the “LPS-induced reversal of the sociability phenotype after antibiotic pretreatment” value (MIA offspring; LPS-injected MIA offspring, antibiotic by oral gavage every two days from 21 days before test) is reported as “prevented the reversal of the sociability phenotype”, the “LPS-induced increase in plasma and brain IL-17a and plasma IFNγ after antibiotic pretreatment” value (IL-17a, IFNγ, IL-6, TNFα) is reported as “suppressed the systemic increase in plasma and brain levels of IL-17a as well as the plasma levels of IFNγ” and the “intestinal colonization by SFB (qPCR of fecal samples)” value [1] is reported as “severely reduced”.

For C[N+]1([O-])CCN(C2=Nc3cc(Cl)ccc3Nc3ccccc32)CC1 [CNO], the “sociability in MIA Vgat-Cre mice” value (MIA offspring; Vgat-Cre MIA offspring without surgery, CNO 1.5 mg/kg i.p. or LPS) was “unaffected by CNO treatment”.

B1: recombinant IL-17a: recombinant IL-17a protein (7956-ML/CF, R&D) administered bilaterally into S1DZ (protein)
chain: AAIIPQSSACPNTEAKDFLQNVKVNLKVFNSLGAKVSSRRPSDYLNRSTSPWTLHRNEDPDRYPSVIWEAQCRHQRCVNAEGKLDHHMNSVLIQQEILVLKREPESCPFTFRVEKMLVGVGCTCVASIVRQAA
For B1, the “sociability phenotype after IL-17a into S1DZ” value (MIA offspring) was “sufficient to promote sociability in monogenic mutant mice as well as in MIA offspring; also recorded: sufficient to rescue the sociability phenotypes of not only MIA offspring”, the “sociability phenotype after IL-17a into S1DZ” value (MIA offspring; listed as IL-17a) was “sufficient to rescue sociability deficits in MIA offspring; also recorded: rescues sociability deficits in both MIA offspring and monogenic mutant mice” and the “sociability phenotype after IL-17a into S1DZ” value (MIA offspring; listed as exogenous IL-17a) was “rescued sociability deficits”. For the same molecule, the “sociability phenotype after IL-17a into S1DZ” value (MIA offspring; listed as recombinant IL-17a protein) was “sufficient to rescue the sociability phenotype of MIA offspring”, the “sociability phenotype after IL-17a into S1DZ” value [2] was “sufficient to promote sociability in monogenic mutant mice” and the “sociability phenotype after IL-17a into S1DZ” value ([2]; listed as IL-17a) was “rescues sociability deficits in both MIA offspring and monogenic mutant mice”.
